One test has as its target HLA-B*40:01. The test can be described thus: IEDB peptide-MHC binding, purified MHC/direct/fluorescence; filed as Kd, often an IC50 or EC50 that approximates it; ≥ and ≤ were set here for values at or beyond the usual limits of such assays. Conditions: source organism: Influenza A virus (A/Moscow/343/2003(H3N2)).
Test [1] deals with HLA-A*02:01. The test can be described thus: IEDB peptide-MHC binding, purified MHC/competitive/fluorescence; filed as Kd, often an IC50 or EC50 that approximates it; ≥ and ≤ were set here for values at or beyond the usual limits of such assays.
Test [2] deals with HLA-A*02:01. Description: IEDB peptide-MHC binding, purified MHC/competitive/fluorescence; ≥ and ≤ were set here for values at or beyond the usual limits of such assays.
The target in test [3] is HLA-A*02:01. The test can be described thus: IEDB peptide-MHC binding, purified MHC/direct/fluorescence; filed as Kd, often an IC50 or EC50 that approximates it; ≥ and ≤ were set here for values at or beyond the usual limits of such assays.
The target of another test is HLA-A*02:06. The test can be described thus: IEDB peptide-MHC binding, purified MHC/competitive/radioactivity; filed as Kd, often an IC50 or EC50 that approximates it; ≥ and ≤ were set here for values at or beyond the usual limits of such assays.
A further test addresses HLA-A*02:03. The description is as above.
A further test has as its target HLA-A*02:02. Described as above.
Test [4] has as its target HLA-A*11:01. The description is as above. Conditions: source organism: Dengue virus 3 Martinique/1243/1999.
Test [5] has as its target HLA-A*01:01. The description is as above.
For test [6], the target named is HLA-A*03:01. Described as above. As to conditions: source organism: Dengue virus 3 Martinique/1243/1999.
A further test addresses HLA-A*26:01. Described as above.
Another test concerns the target HLA-B*15:01. The test can be described thus: IEDB peptide-MHC binding, purified MHC/direct/fluorescence; filed as Kd, often an IC50 or EC50 that approximates it; ≥ and ≤ were set here for values at or beyond the usual limits of such assays.
For another test, the target named is HLA-B*27:05. The description is as above. Conditions: source organism: Homo sapiens.
Test [7] deals with HLA-A*11:01. The test is described as above. Conditions: source organism: Homo sapiens.
In test [8] the target is HLA-A*03:01. The test is described as above.
A further test addresses HLA-A*69:01. The description is as above.
The target in another test is HLA-B*58:01. The description is as above.
The target in the next test is HLA-A*30:02. Description: IEDB peptide-MHC binding, purified MHC/competitive/radioactivity; filed as Kd, often an IC50 or EC50 that approximates it; ≥ and ≤ were set here for values at or beyond the usual limits of such assays.
The target in the next test is HLA-A*24:02. The test is described as above.
A further test has as its target HLA-B*07:02. The test can be described thus: IEDB peptide-MHC binding, purified MHC/direct/fluorescence; filed as Kd, often an IC50 or EC50 that approximates it; ≥ and ≤ were set here for values at or beyond the usual limits of such assays.
In test [9] the target is HLA-A*01:01. Described as above. As to conditions: source organism: West Nile virus.
[10] abbreviates: source organism: Mycobacterium tuberculosis.
The mark [11] stands for this setting: source organism: Mammarenavirus juninense.
Where [12] appears, read: source organism: Zaire ebolavirus.
[13] abbreviates: source organism: Dengue virus 2 Jamaica/1409/1983.
[14] abbreviates: source organism: Dengue virus 1 Brazil/97-11/1997.
Where [15] appears, read: source organism: Marburg virus - Musoke, Kenya, 1980.
Where [16] appears, read: source organism: Sudan ebolavirus.
[17] abbreviates: source organism: Yersinia pestis.
Setting [18] is: source organism: Vaccinia virus WR.
Where [19] appears, read: source organism: West Nile virus NY-99.
Where [20] appears, read: source organism: Lassa virus Josiah.

Bounds are passed on as bounds.

In the test with HLA-B*40:01, AEDMGNGCF had a Kd of 0.166 µM.

ALFGIKLPAL: the dissociation constant Kd in the test with HLA-A*02:01 [1] (source organism: Vaccinia virus Copenhagen) turned out to be 0.0003 µM.

ALVREGLRNV registered an IC50 with HLA-A*02:01 [2] (setting [10]) of 0.13 µM.

Consider AMPGVLSYV, for which the Kd was determined as 0.0036 µM with HLA-A*02:01 [3] (setting [11]), 0.0218 µM in the test with HLA-A*02:06 (setting [11]), 0.00729 µM in the test with HLA-A*02:03 (setting [11]) and 0.00422 µM with HLA-A*02:02 (setting [11]).

As to CTNTFVLKK, the results for the dissociation constant Kd in the test with HLA-A*11:01 [4], in the test with HLA-A*01:01 [5] (source organism: Dengue virus 3 Martinique/1243/1999) and with HLA-A*03:01 [6] were 0.0778 µM, 5.09 µM and 0.00971 µM, respectively.

Take DDQEKKILM: in the test with HLA-A*02:01 [2] (setting [12]), the IC50 was at least 1720 µM.

DLKPQNILL yielded a Kd with HLA-A*02:01 [1] (source organism: Homo sapiens) of 2 µM.

On to DVDKLVCRD, for which the IC50 with HLA-A*02:01 [2] (setting [12]) worked out at 51.9 µM.

Take DVFCDSKLM: the Kd with HLA-A*26:01 (setting [13]) stood at 1.88 µM.

In the test with HLA-B*15:01 (source organism: Homo sapiens), EADPTGHSY came in with a dissociation constant (Kd) of 13.5 µM.

As for ERLQICQRK, the Kd with HLA-B*27:05 was determined as 1.69 µM; with HLA-A*11:01 [7], 9.4 µM; with HLA-A*03:01 [8] (source organism: Homo sapiens), 10.4 µM.

Turning to EVTAKWLWGF, the dissociation constant Kd with HLA-A*26:01 (setting [14]) came to 0.0807 µM.

FLYDRIAST: the Kd with HLA-A*02:01 [3] (setting [15]) was found to be 0.005 µM; in the test with HLA-A*69:01 (setting [15]) it was 1.84 µM.

FTNMEAQLI: the Kd with HLA-A*01:01 [5] (setting [13]) amounted to 2.16 µM.

As for FVRLDRPHT, the IC50 with HLA-A*02:01 [2] (setting [16]) is at least 101 µM.

As to HTQTAGPWHL, the dissociation constant (Kd) in the test with HLA-A*01:01 [5] (setting [13]) is at least 70.4 µM.

On to IAGFIENGW, for which the Kd with HLA-B*58:01 (source organism: Influenza A virus (A/Sichuan/2/1987(H3N2))) was found to be 0.144 µM.

IFISANNQW: in the test with HLA-B*58:01 (source organism: Vibrio vulnificus), the Kd turned out to be 0.0228 µM.

On to IGKMLESTY, for which the Kd with HLA-A*30:02 (source organism: Dengue virus 4 Philippines/H241/1956) was 0.0185 µM.

Sequence ITNTIAGVA showed an IC50 with HLA-A*02:01 [2] (setting [12]) of 19.9 µM.

As for IWGRKSWPL, the Kd with HLA-A*24:02 (setting [14]) is 0.0933 µM.

Sequence KAFSMPLGV registered an IC50 in the test with HLA-A*02:01 [2] (setting [16]) of 9.08 µM.

As to KLSDGVAVL, the IC50 with HLA-A*02:01 [2] (source organism: Homo sapiens) is 6.5 µM.

As to KNEHKSTWHY, the Kd in the test with HLA-A*30:02 (setting [14]) is 0.45 µM.

As for LFSGVSWIM, the Kd in the test with HLA-A*24:02 (source organism: Dengue virus 3 Singapore/8120/1995) came to 0.141 µM.

As to LLAALFHDI, the Kd with HLA-B*58:01 (setting [17]) stood at 1.94 µM; with HLA-A*02:01 [3] (setting [17]), 0.085 µM; with HLA-A*69:01 (setting [17]), 1.94 µM; in the test with HLA-B*15:01 (setting [17]) it was 2.48 µM.

Consider LLHDIGKPV, for which the Kd in the test with HLA-A*69:01 (setting [10]) is at least 20 µM; with HLA-B*07:02 (setting [10]), 11.5 µM.

In the test with HLA-A*69:01 (setting [10]), LLLGGTSEI registered a Kd of 0.846 µM.

Sequence LLPFGQLSI had a Kd with HLA-A*02:01 [1] (source organism: Escherichia coli O139:H28 str. E24377A) of 0.147 µM.

Sequence LLVNEFYI registered a Kd with HLA-A*02:01 [1] (setting [18]) of 0.0587 µM.

LPYTFMLRK registered a Kd with HLA-A*03:01 [8] (source organism: Escherichia coli) of at least 20 µM.

LQLNETIYT: in the test with HLA-A*02:01 [2] (setting [12]), the IC50 amounted to 2.7 µM.

MTRGILGSY: the Kd in the test with HLA-A*01:01 [9] was 7 µM.

On to NITTAVKTV, for which the IC50 in the test with HLA-A*02:01 [2] (setting [16]) was found to be 22.8 µM.

In the case of NSTSTWVTY, the Kd with HLA-A*01:01 [5] (setting [13]) came out at 7.23 µM; in the test with HLA-A*30:02 (setting [13]) it was 1.73 µM.

Regarding RGDLPVWLAY, the dissociation constant Kd in the test with HLA-A*30:02 (setting [13]) stood at 0.00685 µM.

Turning to RLGADLDAV, the IC50 with HLA-A*02:01 [2] (setting [18]) was found to be 7.72 µM.

Sequence RMIGGIGRFYI gave an equilibrium dissociation constant (Kd) with HLA-A*02:01 [1] (source organism: Influenza A virus (A/swine/Italy/2/1979(H1N1))) of 0.0003 µM.

Take RPVSPGKDI: the Kd with HLA-B*07:02 (source organism: Homo sapiens) amounted to 0.0453 µM.

For SIILEFFLM, the Kd in the test with HLA-A*26:01 (setting [14]) was 4.19 µM.

SLFGQRIEV gave an IC50 with HLA-A*02:01 [2] (setting [19]) of 0.204 µM. The Kd in the test with HLA-A*02:01 [1] (source organism: West Nile virus) is 0.0009 µM.

In the test with HLA-A*02:01 [2] (setting [19]), SLTSINVQA displayed a concentration for half-maximal inhibition (IC50) of 0.503 µM.

Turning to SLYKGVYEL, the dissociation constant (Kd) in the test with HLA-A*02:06 (setting [20]) was 0.394 µM; in the test with HLA-A*02:03 (setting [20]), 0.00581 µM; in the test with HLA-A*02:02 (setting [20]) it was 0.0568 µM.

Take SRNSTHEMY: the dissociation constant (Kd) with HLA-A*30:02 (source organism: Dengue virus 4 Thailand/0348/1991) worked out at 1.81 µM.

The record behind these values is the Immune Epitope Database (IEDB).
